# Source: doi:10.1101/2021.06.10.447992 (bioRxiv, 2021)
# Substitutions are numbered along the chain they refer to. Numbers in names are those of the source.
# B1: Y137C COA7 pathogenic variant, recombinant, GST-free (natural protein, human)
# chain: GPLGSMAGMVDFQDEEQVKSFLENMEVECNYHCYHEKDPDGCYRLVDYLEGIRKNFDEAAKVLKFNCEENQHSDSCYKLGAYYVTGKGGLTQDLKAAARCFLMACEKPGKKSIAACHNVGLLAHDGQVNEDGQPDLGKARDCYTRACDGGYTSSCFNLSAMFLQGAPGFPKDMDLACKYSMKACDLGHIWACANASRMYKLGDGVDKDEAKAEVLKNRAQQLHKEQQKGVQPLTFG
# B2: Cytochrome c oxidase assembly factor 7 (COA7), recombinant, GST-free (natural protein, human)
# chain: B1 chain with C142Y
# Target: the molecule itself
# Experiment: AUC
Protein,binding result,stoichiometry N
B1,binds,–
B2,–,2
